Measurements reported in patent US20100204147A1, “Methods For Delivering Thymosin Beta 4, Analogues, Isoforms and Other Derivatives” (REGENERX BIOPHARMACEUTICALS, INC., priority 2003, published 2010).

Target: T1, fibrin (Homo sapiens, UniProt P02671)
T1 construct: purchased Enzyme Research Laboratories (South Bend, Ind.); host or cells: fibrin generated in the well or tube from the purchased fibrinogen with bovine thrombin
T1 sequence (P02671 36-629): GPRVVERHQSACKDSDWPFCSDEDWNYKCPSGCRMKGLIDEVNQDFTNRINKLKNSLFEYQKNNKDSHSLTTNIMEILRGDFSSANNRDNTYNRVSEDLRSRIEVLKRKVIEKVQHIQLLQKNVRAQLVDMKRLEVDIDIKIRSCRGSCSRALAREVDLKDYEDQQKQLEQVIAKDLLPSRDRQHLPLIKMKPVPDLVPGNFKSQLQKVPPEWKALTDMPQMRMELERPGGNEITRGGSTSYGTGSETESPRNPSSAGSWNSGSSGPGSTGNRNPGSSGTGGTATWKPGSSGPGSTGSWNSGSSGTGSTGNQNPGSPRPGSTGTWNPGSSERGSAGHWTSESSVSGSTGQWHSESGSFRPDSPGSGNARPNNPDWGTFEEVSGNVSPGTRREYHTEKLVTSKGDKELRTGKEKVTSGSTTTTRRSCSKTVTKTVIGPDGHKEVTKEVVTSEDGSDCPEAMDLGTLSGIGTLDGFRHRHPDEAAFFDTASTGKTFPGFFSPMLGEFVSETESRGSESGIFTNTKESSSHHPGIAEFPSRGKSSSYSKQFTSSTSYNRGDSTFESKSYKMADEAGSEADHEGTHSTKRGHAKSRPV
T1 sequence (P02675 45-491 partner): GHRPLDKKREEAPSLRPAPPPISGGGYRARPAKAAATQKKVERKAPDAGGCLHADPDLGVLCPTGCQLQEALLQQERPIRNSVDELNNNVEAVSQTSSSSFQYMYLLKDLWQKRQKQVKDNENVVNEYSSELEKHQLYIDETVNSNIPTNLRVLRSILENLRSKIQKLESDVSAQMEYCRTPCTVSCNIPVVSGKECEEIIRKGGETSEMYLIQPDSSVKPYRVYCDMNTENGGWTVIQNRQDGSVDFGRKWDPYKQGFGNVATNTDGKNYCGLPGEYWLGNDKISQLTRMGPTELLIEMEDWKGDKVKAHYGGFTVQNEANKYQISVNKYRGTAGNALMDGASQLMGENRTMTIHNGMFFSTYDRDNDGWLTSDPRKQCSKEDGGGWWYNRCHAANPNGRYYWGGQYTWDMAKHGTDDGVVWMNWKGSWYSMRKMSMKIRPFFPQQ
T1 sequence (P02679 27-437 isoform P02679-2 partner): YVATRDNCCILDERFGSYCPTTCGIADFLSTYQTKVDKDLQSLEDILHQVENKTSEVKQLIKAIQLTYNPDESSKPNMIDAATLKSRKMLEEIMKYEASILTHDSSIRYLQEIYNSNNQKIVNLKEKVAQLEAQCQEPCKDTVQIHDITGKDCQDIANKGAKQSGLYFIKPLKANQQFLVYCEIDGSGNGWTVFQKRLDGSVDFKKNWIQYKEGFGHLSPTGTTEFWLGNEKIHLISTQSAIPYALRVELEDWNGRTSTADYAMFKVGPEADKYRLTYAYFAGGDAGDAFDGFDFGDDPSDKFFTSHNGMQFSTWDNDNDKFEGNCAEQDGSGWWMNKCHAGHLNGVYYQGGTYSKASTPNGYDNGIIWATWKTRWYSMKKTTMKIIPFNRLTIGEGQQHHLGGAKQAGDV
Test: Factor XIIIa-mediated incorporation of FITC-labeled thymosin β4 into fibrin (spectrophotometric)
Type: biochemical
Protocol: Reactions of incorporation of FITC-labeled and unlabeled thymosin β4 into fibrinogen and fibrin were performed in Eppendorf tubes containing a mixture of fibrinogen at 3 mg/mL (9 μM) and thymosin β4 or FITC-labeled thymosin β4 at […] (30 μM) in 100 μL TBS with 2.5 mM CaCl2. The reactions were initiated by addition of FXIIIa(Ca) or FXIIIa(Thr) to final concentration of 30 μg/mL. The final concentration of thrombin in the FXIIIa(Thr)-containing mixtures was made at 2.5 NIH u/mL, sufficient to rapidly form fibrin clot which was observed visually. The reactions with FITC-labeled thymosin β4 lasted for 4 hours at 37° C. in the dark and were stopped by heat inactiviation of the enzymes in boiling water for 5 min during fibrinogen and fibrin denatured and precipitated. The pellets were centrifuged and washed 3 times in TBS and then solubilized. The amounts of fibrin(ogen) and FITC-labeled thymosin β4 in the solubilized pellet were determined spectrophotomertrically using absorption molar coefficients E280,1%=15.0 and ε495=72,000 M^−1cm^−1, respectively. To prepare samples with unlabeled thymosin β4 for analysis by SDS-PAGE and Western blot the reaction mixtures at the indicated time were heat-inactivated as above and solubilized by addition of sample buffer (Invitrogen) containing SDS and reducing agent.

degree of incorporation into fibrin (fibrinogen 9 μM, thymosin β4 30 μM, factor XIIIa with thrombin, 4 hours, 37° C.): 0.4 moles per mole | molar incorporation ratio of thymosin β4 to fibrin (physiological concentrations of fibrin(ogen) and factor XIII): 0.4
Substance: thymosin β4
